The target of assay [1] is T1, MORF PHD1/2 fingers (aa 211-329) (human), Q8WYB5.
T1 chain: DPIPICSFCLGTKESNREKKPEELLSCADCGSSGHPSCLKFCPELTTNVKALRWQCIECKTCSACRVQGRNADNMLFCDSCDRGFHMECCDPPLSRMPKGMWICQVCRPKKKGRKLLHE
As to the kind of experiment: other fluorescence titration.

The target in assay [2] is MOZ PHD1/2 fingers (aa 207-318) (human), Q92794. As to the kind of experiment: other fluorescence titration.
Sequence of MOZ PHD1/2 fingers (aa 207-318) (human), Q92794 (Q92794 207-318): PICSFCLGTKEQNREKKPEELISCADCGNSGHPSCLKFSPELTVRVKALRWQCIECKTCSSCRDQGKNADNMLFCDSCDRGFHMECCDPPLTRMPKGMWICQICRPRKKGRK

With ARTKQTARKSTG (modifications not checked) [unmodified histone H3 peptide (length not stated for the experiment)], the results for the Kd in assay [1] and in assay [2] were 4.3 µM and 3.9 µM, respectively.

Usually Kd stands for a measure of binding affinity in units of concentration. The low end stands for a tighter complex, the high end for a looser complex.

These data come from publication PMC3502708.
